Reference: patent US20220396616A1 (SANYOU BIOPHARMACEUTICALS, published 2022)

Key:
human CLDN18.1 [1] = target: T1, human CLDN18.1 (human, UniProt P56856 1-261); test: flow cytometry, phage supernatant on hCLDN18.1-expressing HEK293 cells
T1 construct: Full length, overexpressed on HEK293 cells; also called hCLDN18.1; human CLDN18.1-HEK293
From the text: (§1) firstly, 1×10⁵ of human CLDN18.2-HEK293T and human CLDN18.1-HEK293 cells were taken, respectively and centrifuged at a low speed of 500 g, and the supernatant was removed.

human CLDN18.2 [2] = target: T2, human CLDN18.2 (human); test: flow cytometry, phage supernatant; hCLDN18.2 cells against hCLDN18.1 cells
T2 construct: also called hCLDN18.2; huCLDN18.2
From the text: as §1

human CLDN18.1 [3] = target: T1, human CLDN18.1; test: flow cytometry, phage supernatant on human CLDN18.1-HEK293 cells
From the text: as §1

human CLDN18.2 [4] = target: T2, human CLDN18.2; test: flow cytometry, phage supernatant on hCLDN18.2-expressing HEK293T cells
From the text: as §1

human CLDN18.1 [5] = target: T1, human CLDN18.1; test: flow cytometry on CLDN18.1-HEK293 cells, different concentrations
Method: Therefore, in this example, different concentrations of the antibody (including the high concentration of 100 μg/mL) were used to incubate with CLDN18.1-HEK293 in vitro. […] The antibody at different concentrations and target cells CLDN18.1-HEK293 were incubated at 4° C. for 1 h and then rinsed three times with the FACS buffer mentioned above. 0.5 μg (0.5 mg/ml) of PE-labelled goat anti-human IgG Fc antibody (Abcam, ab98596) was added and incubated at 4° C. for another 1 h. […] The binding strength and the positive rate of cell binding were recorded.

human CLDN18.2 [6] = target: T2, human CLDN18.2; test: cell-based or functional assay

T1 sequence (P56856 whole entry): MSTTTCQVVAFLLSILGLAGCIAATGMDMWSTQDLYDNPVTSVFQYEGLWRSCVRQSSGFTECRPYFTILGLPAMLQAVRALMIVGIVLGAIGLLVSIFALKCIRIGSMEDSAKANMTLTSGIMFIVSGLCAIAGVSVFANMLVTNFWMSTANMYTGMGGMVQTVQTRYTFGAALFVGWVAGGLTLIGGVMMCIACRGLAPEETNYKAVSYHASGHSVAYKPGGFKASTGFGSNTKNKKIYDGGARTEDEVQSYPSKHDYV

B1: A18-1-42 (VHH)
VHH: EVQVVESGGGLVQPGGSLRLSCAASGSILHIPVMSWYRQAPGKQRELVAGISTGGTTNYGDSVKGRFTISRDNAKNTVYLQMNSLKPEDTAAYYCNVLVVSGIGSHLEVWG
notes: also called candidate nanobody A18-1-42
mean fluorescence intensity (human CLDN18.1 [1]): 1010 MFI | ratio of mean fluorescence intensities on hCLDN18.2 and hCLDN18.1 cells (human CLDN18.2 [2]): 392 | binding result (human CLDN18.1 [3]): no binding | mean fluorescence intensity (human CLDN18.2 [4]): 396000 MFI

B2: A18-1-44 (VHH)
VHH: EVQLVESGGGLVQPGGSLRLSCAASGSIFNLPVMSWYRQAPGKQRELVAGISTGGTTNYGDSVKGRFTISRDNAKNTVYLQMNSLKPEDTAVYYCNVLVISGIGSHLEVWG
mean fluorescence intensity (human CLDN18.1 [1]): 3740 MFI | ratio of mean fluorescence intensities on hCLDN18.2 and hCLDN18.1 cells (human CLDN18.2 [2]): 104 | binding result (human CLDN18.1 [3]): no binding | mean fluorescence intensity (human CLDN18.2 [4]): 390000 MFI

B3: A18-1-65 (VHH)
VHH: EVQLQESGGGLVQPGGSLRLSCAASGTIFNLPVMSWYRQAPGKQRELVAGISTGGTTNYGDSVKGRFTISRDNARNTVYLQMNSLKPEDTAVYYCNVLVVSGIGSHLEVWG
mean fluorescence intensity (human CLDN18.1 [1]): 5890 MFI | ratio of mean fluorescence intensities on hCLDN18.2 and hCLDN18.1 cells (human CLDN18.2 [2]): 73 | binding result (human CLDN18.1 [3]): no binding | mean fluorescence intensity (human CLDN18.2 [4]): 428000 MFI

B4: A-2-3 (VHH)
VHH: EVQLVESGGGLVQPGGSLRLSCAASGSIFNLPVMSWYRQAPGKQRELVAGISTGGTTNYGDSVKGRFTISRDNAKNTVYLQMNSLKPEDTAVYYCNVLVVSGIGSHLEVWG
mean fluorescence intensity (human CLDN18.1 [1]): 3260 MFI | ratio of mean fluorescence intensities on hCLDN18.2 and hCLDN18.1 cells (human CLDN18.2 [2]): 175 | binding result (human CLDN18.1 [3]): no binding | mean fluorescence intensity (human CLDN18.2 [4]): 570000 MFI

B5: A18-1-45 (VHH)
VHH: EVQLQESGGGLVQPGGSLRLSCAASGIIFNIPVMSWYRQAPGKQRELVAGISTGGTTNYGDSVKGRFTISRDNAKNTVYLQMNSLKPEDTAVYYCNVLVVSGIGSHLEVWG
mean fluorescence intensity (human CLDN18.1 [1]): 4750 MFI | ratio of mean fluorescence intensities on hCLDN18.2 and hCLDN18.1 cells (human CLDN18.2 [2]): 78 | binding result (human CLDN18.1 [3]): no binding | mean fluorescence intensity (human CLDN18.2 [4]): 369000 MFI

B6: humanized antibody NA3S-H1 (Fc fusion)
chain: QVQLVESGGGLVQPGGSLRLSCAASGSIFNIPVMGWYRQAPGKQRELVAGISTGGTTNYGDSVKGRFTISRDNAKNTVYLQMNSLKPEDTAVYYCNVLVVSGIGSTLEVWGQGTLVTVSS
notes: Humanized form of NA3-S; also called candidate antibody NA3S-H1; humanized molecule NA3S-H1; not shown: a human IgG Fc is implied (detected with anti-human IgG Fc)
binding result (human CLDN18.1 [5]): no binding (tested: 100 µg/mL) | CDC cell killing on CLDN18.2-KATOIII cells, EC50 (human CLDN18.2 [6]): 10.4 nM

B7: A18-1-62 (VHH)
VHH: QVQLVESGGGLVQPGGSLRLSCAASGTIFNIPVMGWYRQAPGKQRELVAGISTGGTTNYGDSVKGRFTISRDNAKNTVYLQMNSLKPEDTAVYYCNVLVISGIGSHLEVWG
mean fluorescence intensity (human CLDN18.1 [1]): 2940 MFI | ratio of mean fluorescence intensities on hCLDN18.2 and hCLDN18.1 cells (human CLDN18.2 [2]): 126 | binding result (human CLDN18.1 [3]): no binding | mean fluorescence intensity (human CLDN18.2 [4]): 372000 MFI

B8: A18-1-63 (VHH)
VHH: QVQLQESGGGLVQPGGSLRLSCAASGSIFNIPVMGWYRQAPGKQRELVAGISTGGTTNYGDSVKGRFTISRDNAKNTVYLQMNSLKPEDTAVYYCNVLVVSGIGSTLEVWG
notes: also called candidate nanobody A18-1-63
mean fluorescence intensity (human CLDN18.1 [1]): 175 MFI | ratio of mean fluorescence intensities on hCLDN18.2 and hCLDN18.1 cells (human CLDN18.2 [2]): 2200 | binding result (human CLDN18.1 [3]): no binding | mean fluorescence intensity (human CLDN18.2 [4]): 385000 MFI

B9: A293-55 (VHH)
VHH: QVQLVESGGGSVQPGGSLRLSCAASGSIFHIVVMGWYRQAPGKQRELVAGMSTGGTTNYGDSVKGRFTISRDNAKNTVYLQMNSLKPEDTAVYYCNVLVISGIGSHLEVWG
mean fluorescence intensity (human CLDN18.1 [1]): 3340 MFI | ratio of mean fluorescence intensities on hCLDN18.2 and hCLDN18.1 cells (human CLDN18.2 [2]): 117 | binding result (human CLDN18.1 [3]): no binding | mean fluorescence intensity (human CLDN18.2 [4]): 392000 MFI

B10: A18-1-6 (VHH)
VHH: EVQVQESGGGLVQPGGSLRLSCAASGSIFNIPVMSWYRQAPGKQRELVAGISTGGTTNYGDSVKGRFTISRDNAKTTVYLQMNSLKPEDTAVYYCNVLVISGIGSHLEVWG
mean fluorescence intensity (human CLDN18.1 [1]): 1970 MFI | ratio of mean fluorescence intensities on hCLDN18.2 and hCLDN18.1 cells (human CLDN18.2 [2]): 201 | binding result (human CLDN18.1 [3]): no binding | mean fluorescence intensity (human CLDN18.2 [4]): 396000 MFI

B11: A293-34 (VHH)
VHH: QVQLQESGGGLVQPGGSLRLSCAASGTFFNIPVMGWYRQAPGKQRELVAGISTGGTTNYGDSVKGRFTISRDNAKNTVYLQMNSLKPEDTAVYYCNVLVISGIGSHLEVWG
notes: also called candidate nanobody A293-34
mean fluorescence intensity (human CLDN18.1 [1]): 2430 MFI | ratio of mean fluorescence intensities on hCLDN18.2 and hCLDN18.1 cells (human CLDN18.2 [2]): 187 | binding result (human CLDN18.1 [3]): no binding | mean fluorescence intensity (human CLDN18.2 [4]): 454000 MFI

B12: A18-1-48 (VHH)
VHH: EVQLVESGGGLVQPGGSLRLSCAASGNIFRIDTMGWYRQAPGKQREFVAGISRGGSTNYAHSVKERFTISRDNAKNTMYLQMNSLKSEDTAGYYCNAQAWDPGTIRYLEVWGQGTLVTVSA
mean fluorescence intensity (human CLDN18.1 [1]): 3450 MFI | ratio of mean fluorescence intensities on hCLDN18.2 and hCLDN18.1 cells (human CLDN18.2 [2]): 103 | mean fluorescence intensity (human CLDN18.2 [4]): 357000 MFI

B13: A18-1-64 (VHH)
VHH: QVQLVESGGGLVQPGGSLRLSCAASGNIFRIDTMGWYRQAPGKQREFVAGISRGGSTNYAHSVKERFTISRDNAKNTMYLQMNSLKSEDTAGYYCNAQAWDPGTIRYLEVWGQGTLVTVSS
mean fluorescence intensity (human CLDN18.1 [1]): 3500 MFI | ratio of mean fluorescence intensities on hCLDN18.2 and hCLDN18.1 cells (human CLDN18.2 [2]): 116 | mean fluorescence intensity (human CLDN18.2 [4]): 406000 MFI

B14: A18-1-75 (VHH)
VHH: EVQLVESGGGLVQPGGSLRLSCAASGNIFRIDTMVWYRQAPGKQRELVAGISRGGTTNYAHSVKGRFTISRDNAKNTMYLQMNSLKSEDTATYYCNAQAWDVGTIRYLEVWGQGTLVTVSA
mean fluorescence intensity (human CLDN18.1 [1]): 3890 MFI | ratio of mean fluorescence intensities on hCLDN18.2 and hCLDN18.1 cells (human CLDN18.2 [2]): 99 | mean fluorescence intensity (human CLDN18.2 [4]): 387000 MFI

B15: A293-82 (VHH)
VHH: EVQVVESGGGLVQPGGSLRLSCAASGNIFRIDTMVWYRQAPGKQRELVAGISRGGTTNYAHSVKGRFTISRDNAKNTMYLQMNSLKSEDTATYYCNAQAWDVGTIRYLEVWGQGTLVTVSA
mean fluorescence intensity (human CLDN18.1 [1]): 4320 MFI | ratio of mean fluorescence intensities on hCLDN18.2 and hCLDN18.1 cells (human CLDN18.2 [2]): 102 | mean fluorescence intensity (human CLDN18.2 [4]): 442000 MFI

B16: A18-1-78 (VHH)
VHH: EVQLQESGGGLVQPGGSLRLSCAASGNIFRIDTMGWYRQAPGKQREFVAGISRGGSTNYAHSVKERFTISRDNAKNTMYLQMNSLKSEDTAGYYCNAQAWDPGTIRYLEVWGQGTLVTVSA
mean fluorescence intensity (human CLDN18.1 [1]): 3680 MFI | ratio of mean fluorescence intensities on hCLDN18.2 and hCLDN18.1 cells (human CLDN18.2 [2]): 105 | mean fluorescence intensity (human CLDN18.2 [4]): 385000 MFI

B17: A18-1-50 (VHH)
VHH: EVQVQESGGGLVQPGGSLRLSCAASGNIFRIDTMGWYRQAPGKQRELVAGISRGGTTTYAHSVKERFTISRDNAKNTMYLQMNSLKSEDTAGYYCNAQAWDPGTFRYLEVWGQGTLVTVSA
mean fluorescence intensity (human CLDN18.1 [1]): 6040 MFI | ratio of mean fluorescence intensities on hCLDN18.2 and hCLDN18.1 cells (human CLDN18.2 [2]): 67 | mean fluorescence intensity (human CLDN18.2 [4]): 403000 MFI

B18: A-2-4 (VHH)
VHH: EVQVQESGGGLVQAGTSLRLSCAASGNIFRIDTMGWYRQAPGKQRELVAGISRGGTTTYAHSVKERFTISRDNAKNTMYLQMNSLKSEDTAGYYCNAQAWDPGTFRYLEVWGQGTLVTVSA
notes: also called candidate nanobody A-2-4
mean fluorescence intensity (human CLDN18.1 [1]): 4330 MFI | ratio of mean fluorescence intensities on hCLDN18.2 and hCLDN18.1 cells (human CLDN18.2 [2]): 137 | mean fluorescence intensity (human CLDN18.2 [4]): 592000 MFI

B19: A18-1-70 (VHH)
VHH: QVQLVESGGGLVQPGGSLRLSCAASGNIFRIDTMGWYRQAPGKQRELVAGISRGGTTTYAHSVKERFTISRDNAKNTMYLQMNSLKSEDTAGYYCNAQAWDPGTFRYLEVWGQGTLVTVSA
mean fluorescence intensity (human CLDN18.1 [1]): 6230 MFI | ratio of mean fluorescence intensities on hCLDN18.2 and hCLDN18.1 cells (human CLDN18.2 [2]): 65 | mean fluorescence intensity (human CLDN18.2 [4]): 402000 MFI

B20: IMAB362 antibody (antibody, V domains shown)
VH: QVQLQQPGAELVRPGASVKLSCKASGYTFTSYWINWVKQRPGQGLEWIGNIYPSDSYTNYNQKFKDKATLTVDKSSSTAYMQLSSPTSEDSAVYYCTRSWRGNSFDYWGQGTTLTVSS
VL: DIVMTQSPSSLTVTAGEKVTMSCKSSQSLLNSGNQKNYLTWYQQKPGQPPKLLIYWASTRESGVPDRFTGSGSGTDFTLTISSVQAEDLAVYYCQNDYSYPFTFGSGTKLEIKR
CDC cell killing on CLDN18.2-KATOIII cells, EC50 (run with NA3S-H1) (human CLDN18.2 [6]): 149 nM | CDC cell killing on human CLDN18.2-HEK293T cells, EC50 (human CLDN18.2 [6]): 0.936 nM | CDC cell killing on human CLDN18.2-KATOIII tumor cells, EC50 (run with NA1-S, FIG. 6b) (human CLDN18.2 [6]): 50.9 nM | CDC cell killing on human CLDN18.2-KATOIII tumor cells, EC50 (run with NA3-S, FIG. 7d) (human CLDN18.2 [6]): 85.8 nM | Fab-ZAP cell killing (internalization) on CLDN18.2-HEK293T cells, IC50 (run with NA1-S) (human CLDN18.2 [6]): 0.24 nM | Fab-ZAP cell killing (internalization) on CLDN18.2-HEK293T cells, IC50 (run with NA3-S) (human CLDN18.2 [6]): 0.32 nM
